Patent US20240392002A1 (EXELIXIS, published 2024)

Tests used:
[1] = target: T1, ROR1 Ig-like domain (human, UniProt Q01973 42-147); assay: BLI, IgG1 on biosensor, soluble ROR1 domain
T1 construct: also called Acro Cat. No. RO1-H5221
Description: (§1) To measure binding affinity in ROR binder discovery campaigns, the VL and VH domains identified in the phage screen described above were formatted into a bivalent monospecific native human full-length IgG1 architecture and immobilized to a biosensor on an Octet (Pall ForteBio) biolayer interferometer. Soluble ROR antigens, including the extracellular domains of ROR1 (Acro Cat. No. RO1-H522γ) and ROR2 (Acro Cat. No. R02-H52E5), as well as the individual ROR1 Frizzled (Acro Cat. No. RO1-H5222), Ig-like (Acro Cat. No. RO1-H5221), and Kringle (Acro Cat. No. RO1-H5223) domains, were then added to the system and binding measured.
(§2) ROR binding candidates, formatted in the bivalent monospecific native human full-length IgG1 architecture, were further characterized for binding to ROR1 and/or ROR2. […] ROR binding candidates were also characterized for their binding to specific ROR1 domains.

[2] = target: T2, extracellular domain of human ROR1 (human, UniProt Q01973 30-406); assay: BLI, IgG1 on biosensor, soluble ROR ectodomain
T2 construct: bought protein; biotinylated in the bivalent assay format; also called Acro Cat. No. RO1-H522y
Description: as §1, §2

[3] = target: T3, extracellular domain of human ROR2 (human, UniProt Q01974 34-403); assay: BLI, IgG1 on biosensor, soluble ROR ectodomain
T3 construct: bought protein; biotinylated in the bivalent assay format; also called Acro Cat. No. RO2-H52E5
Description: as §1, §2

T2 sequence (Q01973 30-406 limits assumed): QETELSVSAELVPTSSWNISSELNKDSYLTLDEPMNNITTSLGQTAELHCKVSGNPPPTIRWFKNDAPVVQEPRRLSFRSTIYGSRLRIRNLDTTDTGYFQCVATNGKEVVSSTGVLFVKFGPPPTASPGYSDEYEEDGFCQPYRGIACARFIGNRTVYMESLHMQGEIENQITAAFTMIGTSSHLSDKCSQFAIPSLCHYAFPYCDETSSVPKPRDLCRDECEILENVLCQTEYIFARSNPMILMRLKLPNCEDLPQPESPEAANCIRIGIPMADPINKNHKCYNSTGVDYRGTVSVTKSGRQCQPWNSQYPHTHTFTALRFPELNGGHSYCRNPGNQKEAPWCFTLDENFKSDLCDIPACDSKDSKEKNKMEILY
T3 sequence (Q01974 34-403 limits assumed): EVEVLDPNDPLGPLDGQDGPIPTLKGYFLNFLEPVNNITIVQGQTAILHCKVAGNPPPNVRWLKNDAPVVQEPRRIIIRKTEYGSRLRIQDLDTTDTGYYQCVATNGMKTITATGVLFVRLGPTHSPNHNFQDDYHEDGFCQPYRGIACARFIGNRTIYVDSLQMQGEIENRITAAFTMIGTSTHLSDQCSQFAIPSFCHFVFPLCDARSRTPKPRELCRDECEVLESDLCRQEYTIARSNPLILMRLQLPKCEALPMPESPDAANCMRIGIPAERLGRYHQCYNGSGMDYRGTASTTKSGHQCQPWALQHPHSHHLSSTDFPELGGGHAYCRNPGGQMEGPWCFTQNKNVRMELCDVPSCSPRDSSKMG
T1 sequence (Q01973 42-147): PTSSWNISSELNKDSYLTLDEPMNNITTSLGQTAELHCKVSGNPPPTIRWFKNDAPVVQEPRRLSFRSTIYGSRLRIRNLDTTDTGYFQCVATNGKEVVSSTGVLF

Binder | binding result [1] | binding result [2] | binding result [3]
I2C-13 IgG1 (antibody, V domains shown, human IgG1) VH: EVQLVESGGGLVQPGGSLRLSCAASGFTFSSYGIHWVRQAPGKGLEWVAYIHSGIGYTIYADSVKGRFTISADTSKNTAYLQMNSLRAEDTAVYYCARTSSTSTSVMDYWGQGTLVTVSS VL: DIQMTQSPSSLSASVGDRVTITCRASQSVSSAVAWYQQKPGKAPKLLIYSASSLYSGVPSRFSGSRSGTDFTLTISSLQPEDFATYYCQQTYWSPGTFGQGTKVEIK | binds | binds | binds
I2C-5 IgG1 (antibody, V domains shown, human IgG1) VH: EVQLVESGGGLVQPGGSLRLSCAASGFTFSSYDIHWVRQAPGKGLEWVAWIYPYWGYTIYADSVKGRFTISADTSKNTAYLQMNSLRAEDTAVYYCARGTYAPALDYWGQGTLVTVSS VL: DIQMTQSPSSLSASVGDRVTITCRASQSVSSAVAWYQQKPGKAPKLLIYSASSLYSGVPSRFSGSRSGTDFTLTISSLQPEDFATYYCQQFYSYLSTFGQGTKVEIK | – | no binding | binds
I2C-18 IgG1 (antibody, V domains shown, human IgG1) VH: EVQLVESGGGLVQPGGSLRLSCAASGFTFAGYPIHWVRQAPGKGLEWVAAIDPDGGYTYYADSVKGRFTISADTSKNTAYLQMNSLRAEDTAVYYCARHTGFHRYRGMDYWGQGTLVTVSS VL: DIQMTQSPSSLSASVGDRVTITCRASQSVSSAVAWYQQKPGKAPKLLIYSASSLYSGVPSRFSGSRSGTDFTLTISSLQPEDFATYYCQQYYWFPPTFGQGTKVEIK | – | binds | binds
I2C-3 IgG1 (antibody, V domains shown, human IgG1) VH: EVQLVESGGGLVQPGGSLRLSCAASGFTFSHYWIHWVRQAPGKGLEWVALIAPGGDYTSYADSVKGRFTISADTSKNTAYLQMNSLRAEDTAVYYCARSGLPGFDYWGQGTLVTVSS VL: DIQMTQSPSSLSASVGDRVTITCRASQSVSSAVAWYQQKPGKAPKLLIYSASSLYSGVPSRFSGSRSGTDFTLTISSLQPEDFATYYCQQYKSSPLTFGQGTKVEIK | – | no binding | binds
I2C-22 IgG1 (antibody, V domains shown, human IgG1) VH: EVQLVESGGGLVQPGGSLRLSCAASGFTFSSYSIHWVRQAPGKGLEWVAAIYPYWGTTEYADSVKGRFTISADTSKNTAYLQMNSLRAEDTAVYYCARPSGVTYGYALDYWGQGTLVTVSS VL: DIQMTQSPSSLSASVGDRVTITCRASQSVSSAVAWYQQKPGKAPKLLIYSASSLYSGVPSRFSGSRSGTDFTLTISSLQPEDFATYYCQQYYYSPWTFGQGTKVEIK | – | binds | binds
I2A-35 IgG1 (antibody, V domains shown, human IgG1) VH: EVQLVESGGGLVQPGGSLRLSCAASGFTFSAYDIHWVRQAPGKGLEWVAWIDPYGGDTDYADSVKGRFTISADTSKNTAYLQMNSLRAEDTAVYYCARSPSYMQYGGLDYWGQGTLVTVSS VL: DIQMTQSPSSLSASVGDRVTITCRASQSVSSAVAWYQQKPGKAPKLLIYSASSLYSGVPSRFSGSRSGTDFTLTISSLQPEDFATYYCQQYYSSLLTFGQGTKVEIK | binds | – | –
I2C-14 IgG1 (antibody, V domains shown, human IgG1) VH: EVQLVESGGGLVQPGGSLRLSCAASGFTFESYDIHWVRQAPGKGLEWVAAIFSYGGYTTYADSVKGRFTISADTSKNTAYLQMNSLRAEDTAVYYCARGSYGDGRGMDYWGQGTLVTVSS VL: DIQMTQSPSSLSASVGDRVTITCRASQSVSSAVAWYQQKPGKAPKLLIYSASSLYSGVPSRFSGSRSGTDFTLTISSLQPEDFATYYCQQYYYWPGTFGQGTKVEIK | binds | binds | binds
I2A-24 IgG1 (antibody, V domains shown, human IgG1) VH: EVQLVESGGGLVQPGGSLRLSCAASGFTFSTYGIHWVRQAPGKGLEWVAAIYPGTSYTGYADSVKGRFTISADTSKNTAYLQMNSLRAEDTAVYYCAREYFMGMDYWGQGTLVTVSS VL: DIQMTQSPSSLSASVGDRVTITCRASQSVSSAVAWYQQKPGKAPKLLIYSASSLYSGVPSRFSGSRSGTDFTLTISSLQPEDFATYYCQQYYYWPGTFGQGTKVEIK | – | binds | binds

Further lines, results first:

binding result [1] | binding result [2] | binding result [3] | Binder
– | – | no binding | I2A-8 IgG1 (antibody, V domains shown, human IgG1) VH: EVQLVESGGGLVQPGGSLRLSCAASGFTFYGYYIHWVRQAPGKGLEWVAGIRPGGTYTYYADSVKGRFTISADTSKNTAYLQMNSLRAEDTAVYYCARYRYPAFDYWGQGTLVTVSS VL: DIQMTQSPSSLSASVGDRVTITCRASQSVSSAVAWYQQKPGKAPKLLIYSASSLYSGVPSRFSGSRSGTDFTLTISSLQPEDFATYYCQQRRQHLWTFGQGTKVEIK
– | – | no binding | I2A-33 IgG1 (antibody, V domains shown, human IgG1) VH: EVQLVESGGGLVQPGGSLRLSCAASGFTFDDYYIHWVRQAPGKGLEWVAWIDSYGGYTSYADSVKGRFTISADTSKNTAYLQMNSLRAEDTAVYYCARSSYYYPGGFDYWGQGTLVTVSS VL: DIQMTQSPSSLSASVGDRVTITCRASQSVSSAVAWYQQKPGKAPKLLIYSASSLYSGVPSRFSGSRSGTDFTLTISSLQPEDFATYYCQQWDSTLYTFGQGTKVEIK
– | no binding | binds | I2C-7 IgG1 (antibody, V domains shown, human IgG1) VH: EVQLVESGGGLVQPGGSLRLSCAASGFTFDSYYIHWVRQAPGKGLEWVAWIDPYGLDTKYADSVKGRFTISADTSKNTAYLQMNSLRAEDTAVYYCAREPGDYGMDYWGQGTLVTVSS VL: DIQMTQSPSSLSASVGDRVTITCRASQSVSSAVAWYQQKPGKAPKLLIYSASSLYSGVPSRFSGSRSGTDFTLTISSLQPEDFATYYCQQAYGSLLTFGQGTKVEIK
– | – | no binding | I2A-37 IgG1 (antibody, V domains shown, human IgG1) VH: EVQLVESGGGLVQPGGSLRLSCAASGFTFSWYGIHWVRQAPGKGLEWVAYIDSYTSSTYYADSVKGRFTISADTSKNTAYLQMNSLRAEDTAVYYCARSHFGHYDYVMDYWGQGTLVTVSS VL: DIQMTQSPSSLSASVGDRVTITCRASQSVSSAVAWYQQKPGKAPKLLIYSASSLYSGVPSRFSGSRSGTDFTLTISSLQPEDFATYYCQQAYDQLYTFGQGTKVEIK
– | no binding | binds | I2C-19 IgG1 (antibody, V domains shown, human IgG1) VH: EVQLVESGGGLVQPGGSLRLSCAASGFTFTSYDIHWVRQAPGKGLEWVAWIDPGLSYTSYADSVKGRFTISADTSKNTAYLQMNSLRAEDTAVYYCARASIGGGVPVMDYWGQGTLVTVSS VL: DIQMTQSPSSLSASVGDRVTITCRASQSVSSAVAWYQQKPGKAPKLLIYSASSLYSGVPSRFSGSRSGTDFTLTISSLQPEDFATYYCQQYVTGPYTFGQGTKVEIK
– | no binding | binds | I2C-25 IgG1 (antibody, V domains shown, human IgG1) VH: EVQLVESGGGLVQPGGSLRLSCAASGFTFSDYYIHWVRQAPGKGLEWVAYIAPYGGFTYYADSVKGRFTISADTSKNTAYLQMNSLRAEDTAVYYCARDSYRRGYVSGFDYWGQGTLVTVSS VL: DIQMTQSPSSLSASVGDRVTITCRASQSVSSAVAWYQQKPGKAPKLLIYSASSLYSGVPSRFSGSRSGTDFTLTISSLQPEDFATYYCQQRYSSPSTFGQGTKVEIK
– | – | no binding | I2A-12 IgG1 (antibody, V domains shown, human IgG1) VH: EVQLVESGGGLVQPGGSLRLSCAASGFTFTTYYIHWVRQAPGKGLEWVAYISPEDGYTSYADSVKGRFTISADTSKNTAYLQMNSLRAEDTAVYYCARAYYSAVMDYWGQGTLVTVSS VL: DIQMTQSPSSLSASVGDRVTITCRASQSVSSAVAWYQQKPGKAPKLLIYSASSLYSGVPSRFSGSRSGTDFTLTISSLQPEDFATYYCQQSWSPATTFGQGTKVEIK
– | no binding | binds | I2C-21 IgG1 (antibody, V domains shown, human IgG1) VH: EVQLVESGGGLVQPGGSLRLSCAASGFTFSSYYIHWVRQAPGKGLEWVAWIDPYISYTYYADSVKGRFTISADTSKNTAYLQMNSLRAEDTAVYYCARDSELVSGYAMDYWGQGTLVTVSS VL: DIQMTQSPSSLSASVGDRVTITCRASQSVSSAVAWYQQKPGKAPKLLIYSASSLYSGVPSRFSGSRSGTDFTLTISSLQPEDFATYYCQQGDSSLVTFGQGTKVEIK
– | – | no binding | I2A-30 IgG1 (antibody, V domains shown, human IgG1) VH: EVQLVESGGGLVQPGGSLRLSCAASGFTFDSYFIHWVRQAPGKGLEWVAYIYSWGSYTHYADSVKGRFTISADTSKNTAYLQMNSLRAEDTAVYYCARGHRRYFALDYWGQGTLVTVSS VL: DIQMTQSPSSLSASVGDRVTITCRASQSVSSAVAWYQQKPGKAPKLLIYSASSLYSGVPSRFSGSRSGTDFTLTISSLQPEDFATYYCQQVYFTPGTFGQGTKVEIK
– | no binding | binds | I2C-26 IgG1 (antibody, V domains shown, human IgG1) VH: EVQLVESGGGLVQPGGSLRLSCAASGFTFSDYYIHWVRQAPGKGLEWVADIDSYGGFTYYADSVKGRFTISADTSKNTAYLQMNSLRAEDTAVYYCARDPHFLDDVYVLDYWGQGTLVTVSS VL: DIQMTQSPSSLSASVGDRVTITCRASQSVSSAVAWYQQKPGKAPKLLIYSASSLYSGVPSRFSGSRSGTDFTLTISSLQPEDFATYYCQQYSWGLWTFGQGTKVEIK
